From publication PMC5497220 (2017) come the findings set out here.

Where no end group is shown, it is not given here.

This assay addresses T1, Histone H3 (4-10) K9ac peptide 4-10 (Homo sapiens, UniProt P68431, not fully specified (residue 7)).
T1 chain: TKQTARK
Kind of assay: ITC.

B1: ENL (protein)
chain: MDNQCTVQVRLELGHRAQLRKKPTTEGFTHDWMVFVRGPEQCDIQHFVEKVVFWLHDSFPKPRRVCKEPPYKVEESGYAGFIMPIEVHFKNKEEPRKVCFTYDLFLNLEGNPPVNHLRCEKLTFNNPTTEFRYKLLRAGGVMVMPEGADTVSRPSPDYPMLPTIPLSAFSDPKKTKPSHGSKDANKESSKTSKPHKVTKEHRERPRKDSESKSSSKELEREQAKSSKDTSRKLGEGRLPKEEKAPPPKAAFKEPKMALKETKLESTSPKGGPPPPPPPPPRASSKRPATADSPKPSAKKQKKSSSKGSRSAPGTSPRTSSSSSFSDKKPAKDKSSTRGEKVKAESEPREAKKALEVEESNSEDEASFKSESAQSSPSNSSSSSDSSSDSDFEPSQNHSQGPLRSMVEDLQSEESDEDDSSSGEEAAGKTNPGRDSRLSFSDSESDNSADSSLPSREPPPPQKPPPPNSKVSGRRSPESCSKPEKILKKGTYDKAYTDELVELHRRLMALRERNVLQQIVNLIEETGHFNVTNTTFDFDLFSLDETTVRKLQSCLEAVAT
With B1, binding was characterised by a dissociation constant (Kd) of 30.1 µM.
